Test: soluble on expression in E. coli; label from the status in PepcDB or PDB records

Sequence	soluble on expression in E. coli
MGSDKIHHHHHHMKKHSPIGCISKAGLFSKLPHKMLEKIAPISTHQEYFEKGSFIRQPGDGKNGMMFVDKGSAKIYNLNRDGKETVLGVLNKGDYDGQQNLFQDDSHENFIQALQDTYICSISRADFQRLLKDTPDLTLNLLNNFGEKLVAIETNSVRRNSMNAKDRLMDYLVEQSQKNGATKFTLPLKKKDLASYLGTSPETLSRQLKSLEKEGKIKVNRREITIVKD	not soluble
ANCSIMIDEIIHHLKRPPNPLLDPNNLNSEDMDILMERNLRTPNLLAFVRAVKHLENASAIESILKNLLPCLPLATAAPTRHPIHIKDGDWNEFRRKLTFYLKTLENAQAQQ	soluble
MGNTAITRVQMEATKSVPVDHAKYMSGSGAPPPECPMHQKHGDAKSASAVPPHPKMQAASECPVQHDNSDVNPLNMMPPANQQPAADQPFPLPTDRQTSTIPKVTEDGSVQFWQYPSQQMFWNAMLRKGWRWKTEDVSQKDMGDIIRIHNANNEQAWQEVLKWEALHAKECGNPRLKSFGGKAKDFSPRARFRSWLGYELPFDRHDWIVDRCGKDVRYVIDYYDGGLVDKDYRFALLDVRPAMDSVDNVWDRMRVAYMRWKYELFEKFGSADGGKVTAGSDLEHHHHHH	not soluble
MGSDKIHHHHHHMKIELENCQKSLTLKDFEEIESKLGYALPERLKEFYLQYNGGSTKQTASINKYQEVEIEDFFPFKYNKDFKNDPRYTAEGETLELRKAGAISDSILIFAMESTDEGRITIDLVNGKIYLYPIVGMQDVIFNFEEPRLVANSIDDFFDNLVVLDGHKAIPAIEEIEEGQTETAGVMPELSDCSASLTKEDIKNFEVELNVKIPAGMKNFYLKFNGGMPSPYCYQPQDEDLDRVEINAFFPIKERTNAFETIEVIAKGIWSRNLMPCNLLPFAMDSGGNYYALNLKNKKIYYYLTDEWDENASREYNFETNTRYIAQSFNYFINHFIEEEE	not soluble
LAIPEKRLSNNIILTKLKIALNLQAEQIISLLESVDFRISKPELSAFSRKVDHQHYRECKDQVLRNLLHAIDKTYHV	not soluble
MRRRSGINTSAVRYCLRKRKDITLLNPIVRKFQYGQHTVTLETGMMARQATAAVMVSMDDTAVFVTVVGQKKAKPGQDFFPLTVNYQERTYAAGRIPGSFFRREGRPSEGETLIARLIDRPIRPLFPEGFVNEVQVIATVVSVNPQVNPDIVAMIGASAALSLSGIPFNGPIGAARVGYINDQYVLNPTQDELKESKLDLVVAGTEAAVLMVESEAELLSEDQMLGAVVFGHEQQQVVIQNINELVKEAGKPRWDWQPEPVNEALNARVAALAEARLSDAYRITDKQERYAQVDVIKSETIATLLAEDETLDENELGEILHAIEKNVVRSRVLAGEPRIDGREKDMIRGLDVRTGVLPRTHGSALFTRGETQALVTATLGTARDAQVLDELMGERTDTFLFHYNFPPYSVGETGMVGSPKRREIGHGRLAKRGVLAVMPDMDKFPYTVRVVSEITESNGSSSMASVCGASLALMDAGVPIKAAVAGIAMGLVKEGDNYVVLSDILGDEDHLGDMDFKVAGSRDGISALQMDIKIEGITKEIMQVALNQAKGARLHILGVMEQAINAPRGDISEFAPRIHTIKINPDKIKDVIGKGGSVIRALTEETGTTIEIEDDGTVKIAATDGEKAKHAIRRIEEITAEIEVGRVYTGKVTRIVDFGAFVAIGGGKEGLVHISQIADKRVEKVTDYLQMGQEVPVKVLEVDRQGRIRLSIKEATEQSQPAAAPEAPAAEQGE	not soluble
EKGFKVVVLESAKVGFGATGRNGGQIVNSYSRDVDVIESRYDQNQAKALCDMIFEGGDIIRGLIDKYDINCDYKQGGLFTALNSKQLKGLEEHKKNWERYGNDQLTLLDAGEVEQAVGTKVYTGGLLDMRGGHIHPLKLALGEAAAFISLGGQIFEQSAVVSIDKGMNPVVKTAQGSVKSK	not soluble
MGSDKIHHHHHHMIQGKKVVSTLDVSDLEPGKKHLLYFQGVEMPTGQHWHVSVTVAKGAKPGKRGVLVSGVHGDEMSSVHTIQTVMSQLDPAQMSGTVMAVTDVSRPAMEGMQRRWPNFGRGTDLIDMNREWPGNENGVTAASRQAGLLFNRLLRPNADFAIDFHTGTTGFDVAAFNIGGMDVPEIKAMLELYPVGQIFDNHVYPSVLHNAFIAAGIPSFCPEIGAARVLDLEMISLFVEGTMNVLKHHGIVAGPMGRTGKDVHVFVGNSAFPILATAGGLVEHLVKLNDKVEAGQKLAIQRDSFGEVVAEYASGVAGEISGLRSDAMSEPGNPLVFVLFNKPGPEDVGGYPE	not soluble
MSLEAAPAGSGPLRRTFLVPEIKSLDQYDFSRAKAAASLAWVLRAAFGGAEHVPPELWEPFYTDQYAQEHVKPPVTRLLLSAELYCRAWRQALPQLEPSPSPSALLALLARRGTVPSLPEHPVREADLKHQPILMGAHLAVIDALMVAFSFEWTKTLPGPLALSSLEHKLLFWVDTTVRRLQEKTEQEAAQRASPAAPLDGASPAQPSIRYRKDRAIARRAPCFPNVTTLQDLASGAALAATIHCYCPQLLRLEEVCLKDPMSVADSLYNLQLVQDFCASHLPRGCPLSLEDLLYVPPPLKVNLVVLLAEMYMCFEVLKPDFVQAKDLPDGHAVSPRNTETVPSQNNSGSSSSPSRLPGSRERDWENGSNASSPASVPEYTGPRLYKEPSAKSNKFIIHNALSHCCLAGKVNEPQKNRILEEIEKSKANHFLILFRDSSCQFRALYTLSGETEELSRLAGYGPRTVTPAMVEGIYKYNSDRKRFTQIPAKTMSMSVDAFTIQGHLWQSKKPTTPKKGGGTPKEGHHHHHH	soluble
MGSDKIHHHHHHMMTQLSAPTLTKDPLTTQDRQIIATIVNQSDYSKNCKPEDVVTIWISEDDTTVWVKMIHGYARYHKQSFKRAVAEVKASLSAPVKCNHKEERELKQAAEKIGLLGDCDWLSLSVQYYPDKVIGHAGCYTSQKPQLLTPLAEWDFTLPKWNMPAAICPDCGGHGCGNCGYRGTRAEDLCKPVDGYRLTYVGRTDLQTAHNVYLDGEFLGILFKVRNADELWENDPKTYYWRCGDGVRYWSVKEAVEVLSRTTAPIELPQVCRELVAA	not soluble
GPGSMLHRSLACFAVPADRKAFMELVKTLRYRTEAPISDCSAALKETDGDMDAAMQVLRKRGAARAMKKGDRVTEHGFVVSCVGSTPQSGAAIVTICSETDFAARNEHFQRVCMQVRDQLCKLMDATNGAVLANPEEAVKHLSDVMAEELRVAIAVLGENMRVRSIAPLVPAPHVSERLLIGSYTHGSLNVDNVGRIVGLVALSQVRENEVVPKDVLTSVGRHFVATSGAEGNYAHQNFFGSETETVGKWLKQRGLKFSSSLVQEFGKEPVVHTAPEPHR	not soluble
MEVNKKQLADIFGASIRTIQNWQEQGMPVLRGGGKGNEVLYDSAAVIKWYAERDAEIENEKLRREVEE	soluble
MKQLYGVIGNPIGHSLSPVMHNDAFEHLKMDAHYHAFLVKEEVLGEAVRGLKALGISGFNVTTPHKVAIMDYLDEIDPLAKQIGAVNTVVHKDGKLIGYNTDGIGFVRALQSISSEPLQEKRILLLGAGGASRAIYFSLADAGVKEIDVANRTVDKAKELIAACTATVHSVALSLEKATKEQGNYDIIIQTTTIGMHPRVEHTPLQISSLKKGTIVSDIIYNPFETKILCEAKEQGAIIQNGIDMFVYQGALAFEMWTGCVPNIERMKQLVIRNLEANIYVNRKTKKIFTCTSTSFNTNFSSRKRRSK	not soluble
MAVTWAVSDGRAGNARQAEALARALHPDTVHALHLQARAPWRWAAPRRLPGANSAFGPAFAAQLQQPPGLVIGCGRQAALATRLLRARGSVAVQILDPRLDRRQWDLVVVPEHDALRGENVLTLLGSLHPVDDAWLAAGRAAFPAVGALPGPRVALLIGGPTTQVPWTLQALAAQCNAVQAQVRAAGGSLLITASRRTPPEVVALLRTLQQGNPGLLWCDARDGANPYAGLLGWADAIVASADSVNLLSEACATPVPVVAACAEFARGRVGAYVQALQQRQRLCAADEVLATTAAMTPVRETERIAAQVRMRLGLLEHHHHHH	soluble
MFETCEAIVMRTVDYGETNKIVTLFTREWGKVAAMARGAKKPSSRLSAVTQPLSYGHYVIRRSRGVGVLHQGELIDSMRALREDLFAAAYAVYIVELTDKSTEEQKRNPYLFELLLQTLQYMSEGRDLEILTFIYEMKMLAVLGIPPVLDRCARCGATEGRFSFSVKEAGFLCHRCEASDPHRFPLSSASVRLLRLFFHIDLARLGSISVKESTKMELGSVLSAYYDEYAGLSLKTKRFLQQIGELKDKLSPDGGQGASFSL	not soluble
VAASWREQFIRAEQTHWDAVTETASETYWEGGVLSDVTALAPDPATLFISNSMPIRDMDRFGGPRDADLTVLGNRGASGIDGITSTALGAGSATSDPLVLVTGDLAYYHDMNGLLALGRCAVDATVVLLNNDGGGIFHMLPIEDHPTFEDQFRTPHGLDFEPTEALYSLQFERVADRRQFRERFAESVQTDGTQVIEVRFDAGDSHAVRDQLTE	not soluble
MTLVSIVAPNLIEQGKVMEMLQGGRDNAIYRTGDRVSRPASSWTMTVHQLLNHLHSNGFTQCPKVIGIEGGKEWLSFVEGDTFNYPLQGSIASVTALLSAAKMLRRMHDASEDFLISHQSEVCHWMLPDRVPQEVICHGDFMPYNVALNGETVVGVFDFDTAHPAPRLWDVAFSIYGWAPFKTDENDRMGNLEQQIQRAKLFCDAYGCSKLERENLVDVMTLRLTALVDYMRLMASSRDERFQANLEEGHHIAYLQDIDYLRQHHQAITLGMLKER	not soluble
MDEIWFAGIDLGGTTIKLAFINQYGEIQHKWEVPTDKTGDTITVTIAKTIDSKLDELQKPKHIIKYIGMGAPGPVDMAAGVVYETVNLGWKNYALKNHLETETGIPAVIENDANIAALGEMWKGAGDGAKDVILVTLGTGVGGGIIANGEILHGINGAGGEIGHICSIPEGGAPCNCGKTGCIETIASATGIVRIAKGKIANAKKTTRLKATEQLSARDVFEAAGENDEIALEVVDYVAKHLGLVLGNLASSLNPSKIVLGGGVSRAGELLRSKVEKTFRKCAFPRAAQAADISIAALGNDAGVIGGAWIAKNEWLKHQNCLEHHHHHH	soluble
MRAIDLNSDLGESFGAWSMGDDAAMLDIVTSANVACGFHAGDPAGILRTLKAAAAKNVTIGAHVSYPDKVGFGRRNMDVASDELTADVIYQIGSLQGLAKAAGTSVRYVKPHGALYNTIAHDRRQAMAVIEAIRAIDPALVLVALAGSTLIELARSEGLQCIAEAFADRAYTPQGTLVSRREPGAVLHDPELVAQRMLRLVQSGSIEAIDGSLVRIEADSICVHGDSPAAVEMARELRRVLEQASTSLQPFAGKRS	soluble
MVEVLTLGVIQTTLDSTAAWNTDSGEPKISASEDSRAWYEIRRAMRALADHEDQPRIILLPELALPRTRLDDFERLVCSMNALAIVGVDYRLNHRTKSAKNEGLVLVPRNFWKRTPSRYAARVWFGKRDPAPAEASGFKEYMPPWAFHSDPNVYVFDAGPYGRIGVSICYDFMDIERALLYRGRVHHLFVIAYNRDVKLFESLAVSLSRTAFCNVVVCNTGYFGGSLVVSPYYEAFKRIGYSVDGGKVFTAQCVPLPVRDLDAAIHGFDTKPNATYKHLPPGFTTSMDHTAALPEGPSAVAIPLFTSDLEHHHHHH	not soluble
SVSPLKTRCCSPSSQQQASEAREIEQPSTVWELDFYSRPVYGKDNKRIWELIVVDESFLLCHVESVPNDMINSAELRKRVERLLEQVTVKPKVVKFSRMPMFNMISLALKDLGFEVKPSRRTYRLYHVLRDREANIYSKMPGYRSENTLSTSYLYSTERLPDALRGEKFAFCTADYSFLYELQSSDTIPYCDIFNTGDSILLEKELPGIIVYSERADSLASWTAGAEVSFIKFREEELELVLECGINSHYRLAKIAEDHRLVEEAKTFEQMKWHMKGFHFYAIQSLKETSGTSHIKGLWLLNDFMEQ	soluble

— the DeepSol protein solubility set
